Reference: US20170327545A1
Changes are numbered by the printed parent chain. In names and notes the source's numbering stands. Blank lines part the entries; values can stand above or below the binder they belong to.

Key:
[1] = target: Purified Dab prepared from heat-treated E. coli supernatant; assay: dynamic binding capacity at 10% breakthrough, ligand multipoint-coupled to agarose beads (8.8 mg/ml), 1 mg/ml Dab, residence time 4 min
[2] = target: Purified Fab prepared from a papain-digested IgG mAb; assay: dynamic binding capacity at 10% breakthrough, ligand multipoint-coupled to agarose beads (8.8 mg/ml), 1 mg/ml Fab, residence time 4 min
[3] = target: human polyclonal IgG (Gammanorm) (human); assay: SPR (Biacore), ligand amine-coupled to chip, 1 mg/ml human polyclonal IgG flowed; IgG binding signal left after 96 cycles of 10 min 100 mM NaOH
[4] = target: human polyclonal IgG (Gammanorm) (human); assay: SPR (Biacore), ligand amine-coupled to chip, 1 mg/ml human polyclonal IgG flowed; IgG binding signal left after 96 cycles of 10 min 100 mM NaOH (second run, reference for the Q19 mutants)
[5] = target: human polyclonal IgG (Gammanorm) (human); assay: SPR (Biacore), retained IgG binding capacity after 96 NaOH cycles, ratio to reference Domain 3 (itself)
[6] = target: human polyclonal IgG (Gammanorm) (human); assay: SPR (Biacore), retained IgG binding capacity after 96 NaOH cycles, ratio to reference Domain 3 (itself, second run)
[7] = target: human polyclonal IgG (Gammanorm) (human); assay: SPR (Biacore), retained IgG binding capacity after 96 NaOH cycles, ratio to reference Domain 3
[8] = target: Purified Fab prepared from a papain-digested IgG mAb; assay: dynamic binding capacity at 10% breakthrough, ligand multipoint-coupled to agarose beads (11.0 mg/ml), 1 mg/ml Fab, residence time 4 min
[9] = target: Purified Dab prepared from heat-treated E. coli supernatant; assay: dynamic binding capacity at 10% breakthrough, ligand multipoint-coupled to agarose beads (11.0 mg/ml), 1 mg/ml Dab, residence time 4 min
[10] = target: Purified Dab prepared from heat-treated E. coli supernatant; assay: dynamic binding capacity at 10% breakthrough, ligand multipoint-coupled to agarose beads (9.5 mg/ml), 1 mg/ml Dab, residence time 4 min
[11] = target: Purified Fab prepared from a papain-digested IgG mAb; assay: dynamic binding capacity at 10% breakthrough, ligand multipoint-coupled to agarose beads (9.5 mg/ml), 1 mg/ml Fab, residence time 4 min
[12] = target: human polyclonal IgG (Gammanorm) (human); assay: SPR (Biacore), retained IgG binding capacity after 96 NaOH cycles, ratio to reference Protein L (itself)
[13] = target: human polyclonal IgG (Gammanorm) (human); assay: SPR (Biacore), ligand amine-coupled to chip, 1 mg/ml human polyclonal IgG flowed; IgG binding signal left after 100 cycles of 10 min 100 mM NaOH
[14] = target: human polyclonal IgG (Gammanorm) (human); assay: SPR (Biacore), retained IgG binding capacity after 100 NaOH cycles, ratio to reference Protein L (itself)

Retained capacity after 96 cycles (%) [3]: 31%
Retained capacity after 96 cycles (%) [4]: 28%
Sample/ref. ratio [5]: 1
Sample/ref. ratio [6]: 1
B2: Domain 3 (D3) of Peptostreptococcus magnus Protein L (protein)
chain: AQVPKEEVTIKANLIYADGKTQTAEFKGTFEEATAEAYRYADLLAKENGKYTVDVADKGYTLNIKFAGKEKTPEEC

Retained capacity after 96 cycles (%) [3]: 22%
Sample/ref. ratio [7]: 0.71
B3: Domain 2 (D2) of Protein L, variant with alanine in position 31 (protein)
chain: B2 chain with T34A, L43A, A45K, E47D, K50E

Sample/ref. ratio [12]: 1
Retained capacity after 96 cycles (%) [3]: 28%
Retained capacity after 100 cycles (%) [13]: 23%
Sample/ref. ratio [14]: 1
B6: Protein L (four kappa light chain-binding domains, with additional AIHNRA sequence at the N-terminus) (protein)
chain: AIHNRAKEETPETPETDSEEEVTIKANLIFANGSTQTAEFKGTFEKATSEAYAYADTLKKDNGEYTVDVADKGYTLNIKFAGKEKTPEEPKEEVTIKANLIYADGKTQTAEFKGTFEEATAEAYRYADALKKDNGEYTVDVADKGYTLNIKFAGKEKTPEEPKEEVTIKANLIYADGKTQTAEFKGTFEEATAEAYRYADLLAKENGKYTVDVADKGYTLNIKFAGKEKTPEEPKEEVTIKANLIYADGKTQTAEFKGTFAEATAEAYRYADLLAKENGKYTADLEDGGYTINIRFAGKKVDEKPEE

Retained capacity after 96 cycles (%) [3]: 26%
Sample/ref. ratio [7]: 0.84
B8: Domain 4 (D4) of Peptostreptococcus magnus Protein L (protein)
chain: AQVPKEEVTIKANLIYADGKTQTAEFKGTFAEATAEAYRYADLLAKENGKYTADLEDGGYTINIRFAGKKVDEKPEEC

Second part, the binder before the results:

B1: D3(N10Q, N45A, N60Q)4 (designed binder)
chain: PKEEVTIKAQLIYADGKTQTAEFKGTFEEATAEAYRYADLLAKEAGKYTVDVADKGYTLQIKFAGKEKTPEEPKEEVTIKAQLIYADGKTQTAEFKGTFEEATAEAYRYADLLAKEAGKYTVDVADKGYTLQIKFAGKEKTPEEPKEEVTIKAQLIYADGKTQTAEFKGTFEEATAEAYRYADLLAKEAGKYTVDVADKGYTLQIKFAGKEKTPEEPKEEVTIKAQLIYADGKTQTAEFKGTFEEATAEAYRYADLLAKEAGKYTVDVADKGYTLQIKFAGKEKTPEE
QB10 Dab [1]: 15.9 mg/mL
QB10 Fab [2]: 19.3 mg/mL

B4: D3(N10Q, N45A, N60Q)6 (designed binder)
chain: PKEEVTIKAQLIYADGKTQTAEFKGTFEEATAEAYRYADLLAKEAGKYTVDVADKGYTLQIKFAGKEKTPEEPKEEVTIKAQLIYADGKTQTAEFKGTFEEATAEAYRYADLLAKEAGKYTVDVADKGYTLQIKFAGKEKTPEEPKEEVTIKAQLIYADGKTQTAEFKGTFEEATAEAYRYADLLAKEAGKYTVDVADKGYTLQIKFAGKEKTPEEPKEEVTIKAQLIYADGKTQTAEFKGTFEEATAEAYRYADLLAKEAGKYTVDVADKGYTLQIKFAGKEKTPEEPKEEVTIKAQLIYADGKTQTAEFKGTFEEATAEAYRYADLLAKEAGKYTVDVADKGYTLQIKFAGKEKTPEEPKEEVTIKAQLIYADGKTQTAEFKGTFEEATAEAYRYADLLAKEAGKYTVDVADKGYTLQIKFAGKEKTPEE
QB10 Fab [8]: 21.1 mg/mL
QB10 Dab [9]: 16.7 mg/mL

B5: D3(N10Q, N45A, N60Q)2 (designed binder)
chain: PKEEVTIKAQLIYADGKTQTAEFKGTFEEATAEAYRYADLLAKEAGKYTVDVADKGYTLQIKFAGKEKTPEEPKEEVTIKAQLIYADGKTQTAEFKGTFEEATAEAYRYADLLAKEAGKYTVDVADKGYTLQIKFAGKEKTPEE
QB10 Dab [10]: 15.4 mg/mL
QB10 Fab [11]: 19.3 mg/mL

B7: Domain 1 (D1) of Peptostreptococcus magnus Protein L (protein)
chain: AQVSEEEVTIKANLIFANGSTQTAEFKGTFEKATSEAYAYADTLKKDNGEYTVDVADKGYTLNIKFAGKEKTPEEC
Retained capacity after 96 cycles (%) [3]: 13%
Sample/ref. ratio [7]: 0.42
